No end group written: not given here.

The target of one assay is T1, human CCR8 (human, UniProt P51685 1-355).
T1 construct: on CHOK1-human CCR8 cells
Description: FACS, CHOK1-human CCR8 cells. From the text:
(§1) To determine whether the GPRC5D/CD3 bispecific antibodies of the present disclosure cross-bind to the GPCRA and GPCRB family members, a flow cytometry assay was used in this test example to measure the capacity of the GPRC5D/CD3 bispecific antibodies to bind to CHOK1-human CCR8 cells expressing CCR8 (the GPCR A family) (constructed with reference to Example 2) and CHOK1-human GIPR cells expressing human GIPR (the GPCR B family) (constructed with reference to Example 2). The specific procedure was as follows: The cells described above were cultured in DMEF/12K culture medium containing 10% FBS, incubated in a 37° C., 5% CO₂ incubator for 2 days, and added to a cell plate at 1×10⁵ cells/well. The plate was centrifuged at 300 g for 5 min and washed once with 1% BSA. The antibodies were serially diluted to 8 concentrations and added to the cell plate at 100 μL/well. The plate was incubated at 4° C. for 1 h and washed once with 1% BSA. […] The plate was washed three times with 1% BSA, PBS was added at 100 μL/well, and plate reading was performed.

For assay [1], the target named is T2, N-terminal peptide of human GPRC5D (human, biotinylated; made with and without intramolecular disulfide bonds).
T2 construct: synthesized by GenScript; captured on streptavidin; also called amino-terminal peptide
T2 peptide: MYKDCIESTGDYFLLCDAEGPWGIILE
As to the kind of experiment: ELISA, biotinylated peptide on streptavidin. From the text: (§2) To determine the epitope of GPRC5D to which the GPRC5D/CD3 bispecific antibodies of the present disclosure bind, 4 extracellular domain peptides of human GPRC5D were synthesized, including an amino-terminal peptide (N-terminal peptide), an E2 peptide, an E3 peptide, and an E4 peptide (synthesized by GenScript). The peptides were biotinylated and made into two forms: one lacked intramolecular disulfide bonds and the other included intramolecular disulfide bonds. An Elisa plate (Corning 3590) was coated with streptavidin (sigma, SA101), left to stand at 37° C. for 2 h, and then washed. The non-specific binding sites were blocked with PBS containing 5% skim milk, and the plate was left to stand at 37° C. for 2 h and then washed. The peptides, diluted in PBS containing 1% BSA, were added at 100 μL/well, and the plate was left to stand at 37° C. for 1 h and then washed. Subsequently, the GPRC5D/CD3 antibodies, diluted in PBS containing 1% BSA to 0.003 nM-300 nM, were added at 100 μL/well, and the plate was left to stand at 37° C. for 1 h and then washed. […] TMB (KPL, 5120-0077) was added at 100 μL/well. After 5 min of color development, 1 M H₂SO₄ was added to stop the reaction, and the OD₄₅₀ was measured.

Another assay has as its target human GPRC5D (human, UniProt Q9NZD1 1-345). As to the kind of experiment: cell-based or functional assay.
Another assay concerns the target T3, human GIPR (human, UniProt P48546 22-466).
T3 construct: on CHOK1-human GIPR cells
T3 sequence: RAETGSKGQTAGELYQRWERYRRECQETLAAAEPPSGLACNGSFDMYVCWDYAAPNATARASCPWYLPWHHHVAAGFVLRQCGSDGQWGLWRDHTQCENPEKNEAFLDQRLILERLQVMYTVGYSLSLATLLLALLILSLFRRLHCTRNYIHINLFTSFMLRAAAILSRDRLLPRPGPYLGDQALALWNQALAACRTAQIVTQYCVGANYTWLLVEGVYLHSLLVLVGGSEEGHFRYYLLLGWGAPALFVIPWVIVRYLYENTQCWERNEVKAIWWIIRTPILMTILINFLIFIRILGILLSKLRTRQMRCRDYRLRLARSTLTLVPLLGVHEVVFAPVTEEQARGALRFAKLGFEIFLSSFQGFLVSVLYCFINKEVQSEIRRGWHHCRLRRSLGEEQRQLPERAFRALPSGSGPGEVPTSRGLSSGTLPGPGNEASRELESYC
As to the kind of experiment: FACS, CHOK1-human GIPR cells.
Source text: as §1

Assay [2] has as its target T4, E4 peptide of human GPRC5D (human, also: biotinylated, site not given here, made with and without intramolecular disulfide bonds).
T4 peptide: RGNPQFQRQPQWDDC
As to the kind of experiment: peptide ELISA; note: - indicates no detectable binding.
Source text: as §2

The target of assay [3] is T5, E3 peptide of human GPRC5D (human, biotinylated; made with and without intramolecular disulfide bonds).
T5 peptide: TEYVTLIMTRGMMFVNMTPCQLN
The description is as above.
Source text: as §2

Assay [4] concerns the target T6, E2 peptide of human GPRC5D (human, also: biotinylated, site not given here, made with and without intramolecular disulfide bonds).
T6 peptide: NQQTAPVRYC
The description is as above.
Source text: as §2

B1: F2-0G4S-1 (bispecific antibody)
heavy 1: not shown
light 1: DVVMTQTPLSLSVTPGQPASISCRSSQSLVHSQGNTYLYWYLQKPGQSPKLLIYKVSNRFSGVPDRFSGSGSGTDFTLKISRVEAEDVGVYYCSQSTHVPPLTFGQGTKLEIKRTVAAPSVFIFPPSDEQLKSGTASVVCLLNNFYPREAKVQWKVDNALQSGNSQESVTEQDSKDSTYSLSSTLTLSKADYEKHKVYACEVTHQGLSSPVTKSFNRGEC
heavy 2: not shown
light 2: not shown
notes: formula 2-0G4S
B1: the binding result with human CCR8 is “no binding”; with human GIPR, “no binding”; in assay [2], “no binding (tested: 0.003 nM-300 nM)”; in assay [3], “no binding (tested: 0.003 nM-300 nM)”; in assay [4] it was “no binding (tested: 0.003 nM-300 nM)”. In assay [1], the EC50 is 0.392 nM. Further, the “EC50 ratio (relative to JNJ-64407564), cytotoxic activity against NCI-H929” value in the assay with human GPRC5D worked out at 0.57. Moreover, the “Lysis rate %, cytotoxic activity against NCI-H929” value in the assay with human GPRC5D stood at 91.5%.

B2: F2-1 (bispecific antibody)
heavy 1: not shown
light 1: DVVMTQTPLSLSVTPGQPASISCRSSQSLVHSQGNTYLYWYLQKPGQSPKLLIYKVSNRFSGVPDRFSGSGSGTDFTLKISRVEAEDVGVYYCSQSTHVPPLTFGQGTKLEIKRTVAAPSVFIFPPSDEQLKSGTASVVCLLNNFYPREAKVQWKVDNALQSGNSQESVTEQDSKDSTYSLSSTLTLSKADYEKHKVYACEVTHQGLSSPVTKSFNRGEC
heavy 2: not shown
light 2: not shown
notes: formula 2
As for B2, the binding result with human CCR8 and with human GIPR was “no binding” throughout.

B3: F4-0G4S-1 (bispecific antibody)
heavy 1: not shown
light 1: not shown
heavy 2: EVQLVQSGAEVKKPGASVKVSCKVSGYTFTDYPIHWMRQAPGQGLEWMGYVFPRDGSTKYNEKFRVRVTWTADKSTSTVYMELSSLRSEDTAVYYCSRELTAYWGQGTTVTVSSASTKGPSVFPLAPSSKSTSGGTAALGCLVKDYFPEPVTVSWNSGALTSGVHTFPAVLQSSGLYSLSSVVTVPSSSLGTQTYICNVNHKPSNTKVDKKVEPKSCDKTHTCPPCPAPEAAGGPSVFLFPPKPKDTLMISRTPEVTCVVVDVSHEDPEVKFNWYVDGVEVHNAKTKPREEQYNSTYRVVSVLTVLHQDWLNGKEYKCKVSNKALPAPIEKTISKAKGQPREPQVCTLPPSRDELTKNQVSLSCAVKGFYPSDIAVEWESNGQPENNYKTTPPVLDSDGSFFLVSKLTVDKSRWQQGNVFSCSVMHEALHNHYTQKSLSLSPGK
light 2: DVVLTQSPLSLPVTLGQPASISCKSSQSLLHSSGKTYLNWLLQRPGQSPRRLIYLVSKLDSGVPDRFSGSGSGTDFTLKISRVEAEDVGVYYCAQGTHFPRTFGGGTKVEIKRTVAAPSVFIFPPSDEQLKSGTASVVCLLNNFYPREAKVQWKVDNALQSGNSQESVTEQDSKDSTYSLSSTLTLSKADYEKHKVYACEVTHQGLSSPVTKSFNRGEC
notes: formula 4-0G4S
For the molecule B3, the binding result is recorded as “no binding” with human CCR8; “no binding” with human GIPR; “no binding (tested: 0.003 nM-300 nM)” in assay [2]; “no binding (tested: 0.003 nM-300 nM)” in assay [3]; “no binding (tested: 0.003 nM-300 nM)” in assay [4]. The molecule further came in with an EC50 in assay [1] of 0.597 nM. The “EC50 ratio (relative to JNJ-64407564), cytotoxic activity against NCI-H929” value with human GPRC5D amounted to 0.09. Moreover, the “Lysis rate %, cytotoxic activity against NCI-H929” value with human GPRC5D was 136%.

B4: F4-6 (bispecific antibody)
heavy 1: not shown
light 1: not shown
heavy 2: EVQLVQSGAEVKKPGASVKVSCKVSGYTFTDYPIHWMRQAPGQGLEWMGYVFPRDGSTKYNEKFRVRVTWTADKSTSTVYMELSSLRSEDTAVYYCSRELTAYWGQGTTVTVSSASTKGPSVFPLAPSSKSTSGGTAALGCLVKDYFPEPVTVSWNSGALTSGVHTFPAVLQSSGLYSLSSVVTVPSSSLGTQTYICNVNHKPSNTKVDKKVEPKSCDKTHTCPPCPAPEAAGGPSVFLFPPKPKDTLMISRTPEVTCVVVDVSHEDPEVKFNWYVDGVEVHNAKTKPREEQYNSTYRVVSVLTVLHQDWLNGKEYKCKVSNKALPAPIEKTISKAKGQPREPQVCTLPPSRDELTKNQVSLSCAVKGFYPSDIAVEWESNGQPENNYKTTPPVLDSDGSFFLVSKLTVDKSRWQQGNVFSCSVMHEALHNHYTQKSLSLSPGK
light 2: DVVLTQSPLSLPVTLGQPASISCKSSQSLLHSSGKTYLNWLLQRPGQSPRRLIYLVSKLDSGVPDRFSGSGSGTDFTLKISRVEAEDVGVYYCAQGTHFPRTFGGGTKVEIKRTVAAPSVFIFPPSDEQLKSGTASVVCLLNNFYPREAKVQWKVDNALQSGNSQESVTEQDSKDSTYSLSSTLTLSKADYEKHKVYACEVTHQGLSSPVTKSFNRGEC
notes: formula 4
Turning to B4, the binding result with human CCR8 and with human GIPR was “no binding” each time.

Source of the values: patent US20250215083A1 (JIANGSU HENGRUI PHARMACEUTICALS, published 2025).
